Measured values: publication PMC8835488, “Production and Biochemical Characterization of Dimeric Recombinant Gremlin-1” (International Journal of Molecular Sciences, 2022)
Numbering of substitutions follows the chain as printed.

B1: recombinant rat gremlin-1 with C-terminal hexa-histidine tag (pcDNA3-Gremlin-1-HisTag) (natural protein, UniProt O35793 25-184, looked up)
chain: KKKGSQGAIPPPDKAQHNDSEQTQSPPQPGSRTRGRGQGRGTAMPGEEVLESSQEALHVTERKYLKRDWCKTQPLKQTIHEEGCNSRTIINRFCYGQCNSFYIPRHIRKEEGSFQSCSFCKPKKFTTMMVTLNCPELQPPTKKKRVTRVKQCRCISIDLD
modifications: N-glycosylated in part (glycosylated ~30–45%, non-glycosylated ~70–55% of the protein)
notes: gremlin-1, rat; secreted protein; the 0.8–0.9 M NaCl heparin-sepharose fractions hold the dimer; also called IMAC-purified gremlin; IMAC gremlin; source: HEK293T, transiently transfected, secreted into the supernatant; purified by IMAC (Ni2+ column), when indicated followed by heparin-sepharose chromatography; not shown: His6, C-terminal, kept
B2: 10xhis-tagged gremlin expressed in murine myeloma cells (recombinant human gremlin-1 purchased from R&D) (natural protein, UniProt O60565 25-184, looked up)
chain: B1 chain with P27Q, T33N
notes: gremlin-1, human; No catalogue number is printed; source: bought: R&D; expressed in murine myeloma cells, IMAC-purified

How the values were obtained:
[1] = biological target: the molecule itself; test: non-reducing SDS-PAGE with anti-gremlin Western blot; IMAC-purified gremlin (250 mM imidazole eluate), SDS-PAGE without DTT; shows disulfide-bound dimer beside monomer
[2] = biological target: the molecule itself; test: non-reducing SDS-PAGE; bought 10xHis-tagged gremlin from murine myeloma cells, several batches (Figure S1); SDS-PAGE under reducing or non-reducing conditions

| Protein | dimer vs. monomer ratio [1] [%] | stoichiometry N [1] | stoichiometry N [2] |
| --- | --- | --- | --- |
| B1 | ~20 | 2 |  |
| B2 |  |  | 2 |
